2 substances from paper PMC12379891 can be followed below.

The assay addresses AeCRK^G359E (kinase-dead cysteine-rich receptor-like kinase of Aeschynomene evenia), mCherry-tagged and YFP-tagged copies (Aeschynomene evenia). As to the kind of experiment: co-IP.

“AeCRK^G359E (kinase-dead cysteine-rich receptor-like kinase of Aeschynomene evenia), mCherry-tagged and YFP-tagged copies” returned a fold enrichment in the co-IP over the negative control MtLYK3-CFP of 7.37 fold. Under “AeRLCK2-YFP (receptor-like cytoplasmic kinase 2 of Aeschynomene evenia) (natural protein)” stands 2.9 fold.
